Assays:
YTHDC1 YTH domain [1] = target: T1, YTHDC1 YTH domain (Homo sapiens, UniProt Q96MU7 345-509); assay: ITC
YTHDC1 YTH domain [2] = target: T1, YTHDC1 YTH domain; assay: X-ray crystallography

B1: unmodified 11-nt ssDNA (ssDNA)
DNA: CGCGGACTCTG
modifications: none
binding result (YTHDC1 YTH domain [1]): no binding

B2: unmodified 11-nt ssRNA (ssRNA)
RNA: CGCGGACUCUG
modifications: none
binding result (YTHDC1 YTH domain [1]): no binding

B3: 11-nt N6mA ssDNA (ssDNA)
DNA: CGCGGACTCTG
modifications: N6-methyladenine at A6
Kd (YTHDC1 YTH domain [1]): 10 nM

B4: 10-nt N6mA ssDNA (ssDNA)
DNA: CGCGGACTTC
modifications: N6-methyladenine at A6
binding result (YTHDC1 YTH domain [2]): binds
